This test addresses human transferrin receptor (human) (UniProt P02786).

“454A12-RNase conjugate (monoclonal antibody 454A12 against the human transferrin receptor coupled to RNase A)” had an inhibition of protein synthesis of K562 cells (% inhibition (P1, 0.1 µM)) of 99.
